Where a chain is given by its changes, count along the chain named. One block for each molecule: values may come before it.
Assays:
[1] = target: ephrin type-A receptor 2 (EphA2) on cells (human) (UniProt P29317); test: cell-based or functional assay
[2] = target: activated leukocyte cell adhesion molecule (ALCAM) on human cell lines (human) (UniProt Q13740); test: cell-based or functional assay
[3] = target: T1, activated leukocyte cell adhesion molecule (ALCAM) on human cell lines (human, UniProt Q13740 28-583); test: FACS titration of the IgG1 on live DU145 cells, curve fit (apparent KD)
T1 construct: whole, on cells
T1 sequence (looked up): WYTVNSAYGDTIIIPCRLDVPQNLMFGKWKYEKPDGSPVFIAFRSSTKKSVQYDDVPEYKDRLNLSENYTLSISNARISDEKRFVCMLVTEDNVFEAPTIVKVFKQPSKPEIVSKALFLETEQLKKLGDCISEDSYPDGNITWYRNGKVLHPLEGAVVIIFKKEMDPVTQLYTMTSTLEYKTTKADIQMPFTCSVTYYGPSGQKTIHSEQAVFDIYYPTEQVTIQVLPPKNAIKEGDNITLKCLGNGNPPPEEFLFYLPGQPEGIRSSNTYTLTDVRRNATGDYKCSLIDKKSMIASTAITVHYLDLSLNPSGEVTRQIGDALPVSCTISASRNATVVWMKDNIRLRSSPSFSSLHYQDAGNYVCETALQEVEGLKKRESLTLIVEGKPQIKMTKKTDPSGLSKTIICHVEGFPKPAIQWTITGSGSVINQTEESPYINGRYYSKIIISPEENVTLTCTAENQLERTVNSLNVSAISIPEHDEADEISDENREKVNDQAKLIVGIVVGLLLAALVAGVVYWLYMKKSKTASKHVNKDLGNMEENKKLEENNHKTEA
Protocol: (§1) FIGS. 6A-6D graphically illustrate the selection and characterization of anti-ALCAM scFvs from phage display library. FIG. 6A: Enrichment of ALCAM-binding phage through three rounds of selection. Recombinant Fc-fusion of ALCAM-V domain was immobilized on magnetic beads and utilized for scFv phage display library selection. Enrichment was calculated by dividing phage output titer by input phage titer (y-axis on the left). Binding activity of polyclonal phages amplified from each round output was described as folds against the binding of the unselected phage library (y-axis on the right). FIG. 6B: After three rounds of selection, FACS was performed to screen out monoclonal phage binding to the ALCAM^high DU145 cell line. FIG. 6C: Apparent KD of 3F1 IgG on live ALCAM-expressing cells. DU145 cells were incubated with varying concentrations of 3F1 IgG at 4° C. overnight and analyzed by FACS using Alexa® 647-conjugated anti-human IgG. KD value was estimated by curve fitting using GraphPad Prism (GraphPad Software). FIG. 6D: Confocal microscopy study of cellular localization of anti-ALCAM 3F1 IgG. Tumor cell lines were seeded in chamber-well slide and incubated with 3F1 IgG at 37° C. for 2 hours. Antibodies were stained with Alexa® 647-conjugated anti-human antibody (red). […] ALCAM expression measured using 3F1 IgG was shown below microscopic images (lower panel). […]

[4] = target: T1, activated leukocyte cell adhesion …; test: FACS on live DU145 cells, 3F1 IgG at 4 C overnight, Alexa 647 anti-human IgG
Protocol: as §1

[5] = target: T2, mouse recombinant EphA2-Fc fusion protein (mouse, UniProt Q03145 26-535, limits assumed); test: flow cytometry of yeast-displayed scFv with mouse recombinant EphA2-Fc, curve fit of normalized MFI (apparent KD)
T2 construct: also called mouse EphA2; not shown: Fc part
From the text: (§2) In this experiment, RYRgerm is the germline version of RYR. The remaining samples were RYRgerm derivatives with high binding affinity. Apparent KD values were estimated by curve-fitting of normalized MFI values. FIG. 10B: Apparent KD measurement of four new EphA2 scFvs binding affinity to mouse recombinant EphA2-Fc fusion protein. Apparent KD values were estimated by curve-fitting of normalized MFI values.
(§3) This Example describes experiments performed to identify new versions of EphA2 binding scFv antibodies with improved binding affinity. The original EphA2 binding scFv RYR has been described previously in PCT/US2015/039741, in which EphA2 binding scFv RYR was named HCA-F1 and a germline version of RYR was named RYRgerm. To identify new versions of EphA2 binding scFv antibodies improved binding affinity for EphA2, yeast display mutagenesis libraries based on RYRgerm were generated and selected by FACS for higher affinity binders. Four new EphA2 scFvs with high binding affinity for EphA2 were identified and named […], RYRgerm_102919_15, RYRgerm_102919_22, and RYRgerm_102919_33, respectively. The amino acid sequences of VH and VL regions as well as the CDRs for these newly identified EphA2 scFvs are presented in Tables 4-5 and the Sequence Listing. In these eperiments, both human and mouse recombinant EphA2 proteins were used in selection to maintain cross-species binding. Apparent affinity was measured by flow cytometry for binding to both human and mouse EphA2.

recombinant human EphA2 [6] = target: T3, recombinant human EphA2 (human, UniProt P29317 25-534); test: flow cytometry of yeast-displayed scFv with human recombinant EphA2, curve fit of normalized MFI (apparent KD)
T3 construct: also called human recombinant EphA2 protein
From the text: as §2, with “FIGS. 10A-10B graphically illustrate the selection and characterization of anti-EphA2 scFvs from yeast display mutagenesis libraries. FIG. 10A: Apparent KD measurement of four new EphA2 scFvs binding affinity to human recombinant EphA2 protein. In” for “In”
as §3

recombinant human EphA2 [7] = target: T3, recombinant human EphA2; test: flow cytometry of yeast-displayed scFv with recombinant human EphA2 at 0-100 nM
From the text: as §2
as §3, with “In these eperiments, both human and mouse recombinant EphA2 proteins were used in selection to maintain cross-species binding.” left out

recombinant human EphA2 [8] = target: T3, recombinant human EphA2; test: BLI (Probe Life Gator), IgG1 on anti-human Fc probes, 100 nM recombinant human EphA2, 25 C
[9] = target: T4, ephrin type-A receptor 2 (EphA2) on cells (human, UniProt P29317 24-976); test: flow cytometry on DU145 cells, 1 h at 25 C, 40 pM to 125 nM, MFI curve fit (apparent KD)
T4 construct: whole, on cells
Protocol: (§4) In these experiments, apparent binding affinity of RYR IgG1 versus RYRgerm_102919_15 IgG1 on DU145 cells was evaluated. In these experiments, DU145 cells were incubated for 1 h at 25° C. with RYR or RYRgerm_102919_15 at a range of concentrations between 40 pM to 125 nM, washed, and binding detected with anti-human Alexa Fluor 647. MFI values were curve-fit to generate the apparent KD values.

[10] = target: T4, ephrin type-A receptor 2 (EphA2) on …; test: flow cytometry on DU145 cells (apparent KD)
Protocol: as §4

T4 sequence (P29317 24-976): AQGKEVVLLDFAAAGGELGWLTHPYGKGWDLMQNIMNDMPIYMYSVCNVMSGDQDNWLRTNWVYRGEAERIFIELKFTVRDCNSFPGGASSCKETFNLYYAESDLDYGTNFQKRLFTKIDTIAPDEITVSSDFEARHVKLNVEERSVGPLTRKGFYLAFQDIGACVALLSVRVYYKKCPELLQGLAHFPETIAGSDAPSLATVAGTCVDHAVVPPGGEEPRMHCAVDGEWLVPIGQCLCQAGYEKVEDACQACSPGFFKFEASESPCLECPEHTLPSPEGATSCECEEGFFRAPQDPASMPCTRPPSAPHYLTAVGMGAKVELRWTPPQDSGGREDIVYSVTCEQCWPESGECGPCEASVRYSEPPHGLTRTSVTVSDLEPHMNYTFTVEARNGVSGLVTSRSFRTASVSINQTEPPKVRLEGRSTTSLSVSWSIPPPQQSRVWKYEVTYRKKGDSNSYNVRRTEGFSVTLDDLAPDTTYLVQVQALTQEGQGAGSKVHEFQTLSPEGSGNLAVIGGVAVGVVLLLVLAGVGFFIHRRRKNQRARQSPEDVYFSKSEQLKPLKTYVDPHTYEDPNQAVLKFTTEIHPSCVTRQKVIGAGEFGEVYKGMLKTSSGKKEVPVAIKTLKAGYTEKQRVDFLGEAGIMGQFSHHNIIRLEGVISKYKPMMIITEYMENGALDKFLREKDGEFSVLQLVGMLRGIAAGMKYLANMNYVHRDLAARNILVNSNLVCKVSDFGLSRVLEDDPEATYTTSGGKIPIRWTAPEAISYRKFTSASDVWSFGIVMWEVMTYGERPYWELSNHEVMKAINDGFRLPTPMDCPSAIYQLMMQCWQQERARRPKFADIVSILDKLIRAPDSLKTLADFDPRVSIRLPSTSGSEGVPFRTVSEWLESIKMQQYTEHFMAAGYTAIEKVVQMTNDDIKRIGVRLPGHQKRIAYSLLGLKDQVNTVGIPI
T3 sequence (P29317 25-534 limits assumed): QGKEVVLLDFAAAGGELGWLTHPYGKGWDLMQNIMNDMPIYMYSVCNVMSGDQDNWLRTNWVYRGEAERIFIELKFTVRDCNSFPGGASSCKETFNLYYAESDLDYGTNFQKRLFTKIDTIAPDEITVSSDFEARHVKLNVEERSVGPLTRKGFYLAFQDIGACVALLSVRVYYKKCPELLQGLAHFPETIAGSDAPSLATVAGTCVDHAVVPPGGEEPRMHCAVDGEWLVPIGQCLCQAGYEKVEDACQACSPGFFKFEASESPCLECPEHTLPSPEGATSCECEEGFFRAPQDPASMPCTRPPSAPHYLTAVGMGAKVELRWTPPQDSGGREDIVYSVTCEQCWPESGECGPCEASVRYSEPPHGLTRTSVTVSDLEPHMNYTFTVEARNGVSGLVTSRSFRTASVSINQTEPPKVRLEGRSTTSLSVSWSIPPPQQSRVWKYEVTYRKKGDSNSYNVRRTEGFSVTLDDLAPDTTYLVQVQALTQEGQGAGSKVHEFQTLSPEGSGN
T2 sequence (Q03145 26-535 limits assumed): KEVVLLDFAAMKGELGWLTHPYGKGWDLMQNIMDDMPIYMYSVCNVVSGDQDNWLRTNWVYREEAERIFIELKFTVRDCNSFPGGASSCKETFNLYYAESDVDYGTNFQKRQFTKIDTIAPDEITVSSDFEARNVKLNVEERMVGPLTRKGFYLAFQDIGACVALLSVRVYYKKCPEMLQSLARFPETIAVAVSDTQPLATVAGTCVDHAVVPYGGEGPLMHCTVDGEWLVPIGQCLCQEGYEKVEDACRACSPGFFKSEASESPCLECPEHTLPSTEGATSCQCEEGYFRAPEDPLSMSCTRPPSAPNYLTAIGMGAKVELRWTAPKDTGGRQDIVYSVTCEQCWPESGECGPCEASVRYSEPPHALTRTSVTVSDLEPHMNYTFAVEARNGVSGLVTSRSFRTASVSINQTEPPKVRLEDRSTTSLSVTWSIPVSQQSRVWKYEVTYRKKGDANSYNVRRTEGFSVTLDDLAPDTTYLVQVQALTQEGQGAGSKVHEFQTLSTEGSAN
ephrin type-A receptor 2 (EphA2) on cells (human), sequence (P29317 24-976): as the sequence (P29317 24-976) above

Molecule: control C10/RYR bsIgG (bispecific antibody)
- surface EphA2 removed from pancreatic cancer cells (FACS) [1]: 85%
- ALCAM Internalization (% over ctrl, Mean, n = 2); HEK293-EphA2#2 cells [2]: 14.6 % over ctrl
- ALCAM Internalization (% over ctrl, Mean, n = 2); HEK293-EphA2#8 cells [2]: 0.5 % over ctrl
- ALCAM Internalization (% over ctrl, Mean, n = 2); HEK293-EphA2#31 cells [2]: 9.2 % over ctrl
- ALCAM Internalization (% over ctrl, Mean, n = 2); HEK293-EphA2#42 cells [2]: -16.5 % over ctrl
- ALCAM Internalization (% over ctrl, Mean, n = 2); HEK293-EphA2#C9 cells [2]: -9.6 % over ctrl
- ALCAM Internalization (% over ctrl, Mean, n = 2); HEK293-EphA2-0.02 cells [2]: 28.6 % over ctrl
- ALCAM Internalization (% over ctrl, Mean, n = 2); HEK293-EphA2-0.1 cells [2]: -22.4 % over ctrl
- ALCAM Internalization (% over ctrl, Mean, n = 2); HEK293-EphA2-0.5 cells [2]: -36.3 % over ctrl
- ALCAM Internalization (% over ctrl, Mean, n = 2); HEK293-EphA2-2.5 cells [2]: 7.1 % over ctrl
- ALCAM Internalization (% over ctrl, Mean, n = 2); HEK293-SiRNA2 cells [2]: -6 % over ctrl
- ALCAM Internalization (% over ctrl, Mean, n = 2); HEK293-siRNA1 cells [2]: -3.4 % over ctrl
- ALCAM Internalization (% over ctrl, Mean, n = 2); HEK293-siRNA3 cells [2]: -4.4 % over ctrl
- ALCAM Internalization (% over ctrl, Mean, n = 2); HEK293 cells [2]: 10.8 % over ctrl

B1: anti-ALCAM 3F1 IgG1 (antibody, V domains shown)
VH: EVQLVESGGGLVKPGGSLRLSCAASGFTLSDYSMNWVRQAPGKGLEWVASISSRSSYIYYADSVKGRFTISRDNAKNSLYLGMNSLRAEDTAVYYCTGGQGYSGYDGFQHWGQGTLVTVSS
VL: QSALTQPPSASGTPGQRVTISCSGSSSNIGSNSVSWYQQLPGTAPKLLIYSNTHRPSGVPDRFSGSKSGTSASLAISGLLSEDEADYYCASWDDSLNGGVFGGGTQLTVL
notes: also called anti-ALCAM mAb 3F1
- Kd [3]: 0.0206 nM
- EC50 (read off the curve) [4]: ~0.02 nM

B2: RYRgerm_102919_22 scFv (scFv)
scFv: EVQLVESGGGLVQPGGSLRLSCAASGFTFSSYSMNWVRQAPGKGLEWVSYISSSSSTIYYADSVKGRFTISRDNAKNSLYLQMNSLRAEDTAVYYCARYRLPNFWSGYPNYGMDVWGQGTTVTVSSGGGGSGGGGSGGGGSQSVLTQPPSVSGAPGQRVTISCTGSSSNIGAGYDVHWYQQLPGTAPKLLIYGNSNRPSGVPDRFSGSKSGTSASLAITGLQAEDEADYYCQSYDSSLSGHVVFGGGTKLTVL
- Kd [5]: 1.34 nM
- Kd (recombinant human EphA2 [6]): 28.1 nM

B3: RYRgerm scFv (scFv)
chain: B2 scFv with N103D
- Kd [5]: 115 nM
- Kd (recombinant human EphA2 [6]): 355 nM

B7: RYR IgG1 (antibody, V domains shown)
VH: QVQLQESGGGLVQPGGSLRLSCAASGFTFSSYSMNWVRQAPGKGLEWVSYISSSSSTIYYADSVKGRFTISRDNAKNSLYLQMNSLRAEDTAVYYCARYRLPDFWSGYPNYGMDVWGQGTTVTVSS
VL: QSVLTQPPSVSGAPGQRVTISCTGSSSNIGAGYDVHWYQQLPGTAPKLLIYGNSNRPSGVPDRFSGSKSGTSASLAITGLQAEDEADYYCQSYDSSLSGHVVFGGGT
notes: Recombinant human IgG1 built from the original EphA2 scFv RYR; also called original RYR; HCA-F1
- Kd (recombinant human EphA2 [8]): ~28 nM
- koff (recombinant human EphA2 [8]): 0.0145 s⁻¹
- kon (recombinant human EphA2 [8]): 518000 M⁻¹ s⁻¹
- Kd [9]: 23.7 nM

B8: RYRgerm_102919_15 IgG1 (antibody, V domains shown)
VH: B7 VH with Q1E, Q5V, D103N, M113T
VL: QSVLTQPPSVSGAPGQRVTISCTGSSSNIGAGYDVHWYQQLPGTAPKLLIYGNSNRPSGVPDRFSGSKSGTSASLAITGLQAEDEADYYCQSYDSSLSGHVVFGGGTKLTVL
notes: Recombinant human IgG1 built from the scFv RYRgerm_102919_15
- fold increase in binding affinity against RYR IgG1 [10]: ~100 fold
- Kd (recombinant human EphA2 [8]): ~5 nM
- fold increase in binding affinity against RYR IgG1 (recombinant human EphA2 [8]): ~5 fold
- koff (recombinant human EphA2 [8]): 0.00132 s⁻¹
- kon (recombinant human EphA2 [8]): 262000 M⁻¹ s⁻¹
- Kd [9]: 0.23 nM

Next, values leading:

- Kd [5]: 2.87 nM
- Kd (recombinant human EphA2 [6]): 42.5 nM
B4: RYRgerm_102919_33 scFv (scFv)
scFv: B2 scFv with L101F, N103D

- Kd [5]: 2.12 nM
- Kd (recombinant human EphA2 [6]): 21.3 nM
B5: RYRgerm_102919_14 scFv (scFv)
scFv: B2 scFv with F29S
notes: also called RYRgerm_102019_14

- Kd [5]: 2.01 nM
- Kd (recombinant human EphA2 [6]): 5.58 nM
- EC50 (read off the curve) (recombinant human EphA2 [7]): ~5 nM
B6: RYRgerm_102919_15 scFv (scFv)
scFv: B2 scFv with M113T
